Laboratory results reported in patent US20230126400A1.

Experiments:
human MS4A4A (human) [1] = target: human MS4A4A (human) (UniProt Q96JQ5); experiment: functional affinity, FACS titration on stably transfected 300.19 cells
human MS4A4A (human) [2] = target: human MS4A4A (human) (UniProt Q96JQ5); experiment: flow cytometry (anti-mouse IgG Fc-APC) on U937 cells transfected with human MS4A4A (Plate B); untransfected U937 cells (Plate A): mean 259
[3] = target: cynomolgus (cyno) MS4A4A (cynomolgus); experiment: flow cytometry (anti-mouse IgG Fc-APC) on 300.19 cells transfected with cyno MS4A4A (Plate E); untransfected 300.19 cells (Plate C): mean 110
human MS4A4A (human) [4] = target: human MS4A4A (human) (UniProt Q96JQ5); experiment: flow cytometry (anti-mouse IgG Fc-APC) on 300.19 cells transfected with human MS4A4A (Plate D); untransfected 300.19 cells (Plate C): mean 110
human MS4A4A (human) [5] = target: human MS4A4A (human) (UniProt Q96JQ5); experiment: flow cytometry (anti-mouse IgG Fc-APC) on HEK293 cells transiently transfected with human MS4A4A (h4A_293); 293 parental cells: mean 131
[6] = target: cynomolgus (cyno) MS4A4A (cynomolgus); experiment: flow cytometry (anti-mouse IgG Fc-APC) on HEK293 cells transiently transfected with cyno MS4A4A (cy4A_293); 293 parental cells: mean 131
human MS4A4A (human) [7] = target: human MS4A4A (human) (UniProt Q96JQ5); experiment: flow cytometry (anti-mouse IgG Fc-APC) on U937 cells transfected with human MS4A4A (Plate B); untransfected U937 cells (Plate A): mean 387
[8] = target: human MS4A4A-GFP 4A.Ala.35 (ECL2 deletion of GNS) (human) (UniProt Q96JQ5); experiment: FACS, HEK293T
[9] = target: cynomolgus (cyno) MS4A4A (cynomolgus); experiment: flow cytometry (anti-mouse IgG Fc-APC) on 300.19 cells transfected with cyno MS4A4A (Plate E); untransfected 300.19 cells (Plate C): mean 111; no primary antibody on Plate E: 122
human MS4A4A (human) [10] = target: human MS4A4A (human) (UniProt Q96JQ5); experiment: flow cytometry (anti-mouse IgG Fc-APC) on U937 cells transfected with human MS4A4A (Plate B); untransfected U937 cells (Plate A): mean 240; no primary antibody on Plate B: 246
human MS4A4A (human) [11] = target: human MS4A4A (human) (UniProt Q96JQ5); experiment: flow cytometry (anti-mouse IgG Fc-APC) on 300.19 cells transfected with human MS4A4A (Plate D); untransfected 300.19 cells (Plate C): mean 111; no primary antibody on Plate D: 177
human MS4A4A (human) [12] = target: human MS4A4A (human) (UniProt Q96JQ5); experiment: flow cytometry (anti-mouse IgG Fc-APC) on U937 cells transfected with human MS4A4A (Plate B); untransfected U937 cells (Plate A): mean 229; no primary antibody on Plate B: 246
human MS4A4A (human) [13] = target: human MS4A4A (human) (UniProt Q96JQ5); experiment: flow cytometry (anti-mouse IgG Fc-APC) on 300.19 cells transfected with human MS4A4A (Plate D); untransfected 300.19 cells (Plate C): mean 106; no primary antibody on Plate D: 177
[14] = target: cynomolgus (cyno) MS4A4A (cynomolgus); experiment: flow cytometry (anti-mouse IgG Fc-APC) on 300.19 cells transfected with cyno MS4A4A (Plate E); untransfected 300.19 cells (Plate C): mean 106; no primary antibody on Plate E: 122
human MS4A4A (human) [15] = target: human MS4A4A (human) (UniProt Q96JQ5); experiment: flow cytometry (anti-mouse IgG Fc-APC) on U937 cells transfected with human MS4A4A (Plate B); untransfected U937 cells (Plate A): mean 247; no primary antibody on Plate B: 246

Kd (human MS4A4A (human) [1]) [nM]	Mean : APC-A [3]	Mean : APC-A (human MS4A4A (human) [4])	Mean : APC-A [9]	Mean : APC-A (human MS4A4A (human) [11])	Substance	further results
9.5	128	21100			anti-MS4A4A antibody 3F2 (Millipore)	Mean : APC-A (human MS4A4A (human) [2]): 14300
10					anti-MS4A4A antibody 4H2 (Kerafast)	
27	129	19500			anti-MS4A4A antibody 5C12 (BioLegend)	Mean : APC-A (human MS4A4A (human) [5]): 7160; Mean : APC-A [6]: 158; Mean : APC-A (human MS4A4A (human) [7]): 15000; % binding compared to wildtype MS4A4A [8]: 1%
			116	181	msIgG1 Isotype Ctrl (antibody)	Mean : APC-A (human MS4A4A (human) [10]): 248
					msIgG2a Isotype Ctrl (antibody)	Mean : APC-A (human MS4A4A (human) [12]): 243; Mean : APC-A (human MS4A4A (human) [13]): 155; Mean : APC-A [14]: 109
			107	155	msIgG2b Isotype Ctrl (antibody)	Mean : APC-A (human MS4A4A (human) [15]): 234
